Results as given in patent publication US8541236B2, “Mutant apolipoprotein A-1 polypeptide with increased resistance to oxidation and reactive carbonyls” (University of Washington, priority 2006, dated 2013).
“Also recorded” adds a separate entry of the source.

What was measured:
[1] = Denaturing SDS-PAGE analysis of oxidant-treated apoA-I; format: physicochemical
Experimental: In order to analyze the effects of HOCl and acrolein on apoA-I structure, purified apoA-I was treated with a molar ratio of HOCl at mol:mol concentrations of 0, 5, 10, or 25; or with a molar ratio of acrolein at mol:mol concentrations of 0, 1, 2, 5, 10, or 20.

[2] = Far UV circular dichroism of HOCl-treated apoA-I; format: physicochemical; settings: treated 1 hour with HOCl
Experimental: Secondary structure of apoA-I was determined using far UV circular dichroism.

[3] = Thioflavin T binding assay and electron microscopy for amyloid formation; format: physicochemical
Experimental: A thioflavin T binding assay was used to investigate whether chlorination of apoA-I promotes amyloid formation. Thioflavin T is known to bind rapidly to amyloid fibrils and undergoes a dramatic increase in fluorescence at 485 nm upon excitation at 455 nm (see Naiki, H., et al., Anal. Biochem. 177:244-249, 1989). apoA-I was chlorinated by treatment with HOCl or the MPO system and a time course of thioflavin T binding to treated apoA-I was carried out over 60 minutes as shown in FIG. 6B.

[4] = biological target: T1, Lecithin Cholesterol Acyltransferase (LCAT) (Homo sapiens, UniProt P04180); experiment: Activation of LCAT after oxidation with MPO; format: biochemical; settings: apoA-I exposed to MPO
T1 sequence (P04180 25-440): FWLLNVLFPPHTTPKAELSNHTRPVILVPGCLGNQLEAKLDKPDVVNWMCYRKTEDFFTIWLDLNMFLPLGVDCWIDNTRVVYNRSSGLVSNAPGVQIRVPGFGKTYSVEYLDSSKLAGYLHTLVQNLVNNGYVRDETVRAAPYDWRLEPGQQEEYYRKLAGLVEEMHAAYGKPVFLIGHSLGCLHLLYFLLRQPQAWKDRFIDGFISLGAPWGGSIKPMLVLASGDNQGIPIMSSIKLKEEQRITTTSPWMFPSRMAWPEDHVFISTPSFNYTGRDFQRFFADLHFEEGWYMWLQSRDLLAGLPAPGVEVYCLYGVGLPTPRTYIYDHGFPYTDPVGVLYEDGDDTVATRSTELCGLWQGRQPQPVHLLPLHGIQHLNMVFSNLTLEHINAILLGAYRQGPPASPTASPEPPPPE
Experimental: Reactions with isolated HDL (1 mg protein/ml) were carried out at 37° C. for 1 h in 50 mM sodium phosphate buffer (pH 7.4) containing 100 uM DTPA and 100 nM MPO. Reactions were initiated by adding hydrogen peroxide and terminated by adding a 20-fold molar excess (relative to peroxide) of Met.

ABCA1 [5] = biological target: T2, ABCA1 (Homo sapiens, UniProt O95477); experiment: Radiolabeled cholesterol efflux assay from ABCA1-transfected BHK cells; format: cell-based; parameters: expressed in transfected cells; host or cells: BHK (baby hamster kidney) cells, mifepristone-inducible GeneSwitch system; settings: for cholesterol efflux promoted: after oxidation by the MPO system
Experimental: The effect of oxidant treatment of apoA-I on the ability of apoA-I to promote cholesterol efflux from cells via the ABCA1 pathway was measured as follows.
A radiolabeled cholesterol efflux assay from ABCA1-transfected cells was carried out as described in Shao, et al., J. Biol. Chem. 280(7):5983-5993, 2005. Briefly described, baby hamster kidney (BHK) cells expressing mifepristone-inducible human ABCA1 were generated as described in Vaughan, A. M., et al., J. Lipid. Res. 44:1373-1380, 2003. Cellular cholesterol was labeled by adding 1 μCi/ml [^3H]cholesterol (Perkin Elmer Life Sciences) to the growth medium. Twenty-four hours later, strong expression of ABCA1 was induced by incubating the cells for 20 h with Dulbecco's modified Eagle's medium containing 1 mg/ml bovine serum albumin and 1 nM mifepristone. To measure cholesterol efflux, mock or ABCA1-transfected cells were incubated with Dulbecco's modified Eagle's medium/bovine serum albumin with or without apoA-I treated under the following conditions:
(1) purified apoA-I was treated for 1 hour with increasing concentrations of HOCl, H2O2 with MPO plus NACl, ONOO, or H2O2 with MPO plus NO2;
(2) purified apoA-I was treated for 24 hours with a molar ratio (mol:mol) of 0, 1:25, or 1:50 of acrolein; and
(3) peptide 2F was treated for 1 hour with a 25 molar excess of HOCl.
After 2 hour incubations with apoA-I, the medium and cells were assayed for [^3H]cholesterol as described in Vaughan, A. M., et al., J. Lipid. Res. 44:1373-1380, 2003. Cholesterol efflux mediated by apoA-I was calculated as the percentage of total [^3H]cholesterol (medium plus cells) released into the medium after subtracting the value obtained with Dulbecco's modified Eagle's medium/bovine serum albumin alone. Acrolein adducts of K226 were measured by MS.
BHK cells transfected with a mifepristone-inducible GeneSwitch (Invitrogen) system containing a human ABCA1 cDNA were incubated with serum-free medium with or without 10 nM mifipristone for 24 h to generate cells expressing virtually no or high levels of ABCA1, respectively (see Vaughan, A. M., and J. F. Oram, J. Lipid Res. 44:1373-1380, 2003). To radiolabel cellular cholesterol, [^3H]cholesterol was added to the acetyl LDL medium for macrophages and the growth medium prior to ABCA1 induction for BHK cells. Efflux of [^3H]cholesterol was measured after a 2 h incubation in medium with or without apoA-I (Tang, C., et al., J. Biol. Chem. 279:7622-7628, 2004).

ABCA1 [6] = biological target: T2, ABCA1; experiment: as above; format: cell-based; parameters: expressed in transfected cells; host or cells: BHK (baby hamster kidney) cells, mifepristone-inducible GeneSwitch system; settings: apoA-I treated with increasing concentrations of MDA
ABCA1 [7] = biological target: T2, ABCA1; parameters: expressed in transfected cells; host or cells: BHK (baby hamster kidney) cells; settings: cited from earlier work
[8] = tested on: Baby Hamster Kidney (BHK) cells transfected with a transfection vector alone (Mock); experiment: 3H-cholesterol efflux from Mock-transfected BHK cells (ABCA1-independent, Example 11); format: cell-based; settings: 20 μg/ml peptide, HOCl-treated (5 molar ratio HOCl to peptide), 4 hours
Experimental: (§1) Baby Hamster Kidney (BHK) cells were transfected with a cDNA expressing ABCA1 (ABCA1) or with a transfection vector alone (Mock). The transfected cells were radiolabeled with ^3H-cholesterol, washed and then incubated for 4 hours with media containing 20 μg/ml untreated or HOCl-treated (5 molar ratio HOCl to peptide) peptide 2F (SEQ ID NO:9). At the end of the incubation, the amount of ^3H-cholesterol (efflux) released from the cells was measured and expressed as the percent total (media plus cells) ^3H-cholesterol.

ABCA1 [9] = biological target: T2, ABCA1; experiment: 3H-cholesterol efflux from ABCA1-transfected BHK cells, 4 hour incubation with peptide (Example 11); format: cell-based; parameters: expressed in transfected cells; host or cells: BHK (baby hamster kidney) cells; settings: 20 μg/ml peptide, HOCl-treated (5 molar ratio HOCl to peptide)
Experimental: as §1

[10] = ESI-MS analysis of chlorination after incubation with HOCl; format: physicochemical; settings: incubated in the presence of HOCl

T2 sequence (O95477 whole entry): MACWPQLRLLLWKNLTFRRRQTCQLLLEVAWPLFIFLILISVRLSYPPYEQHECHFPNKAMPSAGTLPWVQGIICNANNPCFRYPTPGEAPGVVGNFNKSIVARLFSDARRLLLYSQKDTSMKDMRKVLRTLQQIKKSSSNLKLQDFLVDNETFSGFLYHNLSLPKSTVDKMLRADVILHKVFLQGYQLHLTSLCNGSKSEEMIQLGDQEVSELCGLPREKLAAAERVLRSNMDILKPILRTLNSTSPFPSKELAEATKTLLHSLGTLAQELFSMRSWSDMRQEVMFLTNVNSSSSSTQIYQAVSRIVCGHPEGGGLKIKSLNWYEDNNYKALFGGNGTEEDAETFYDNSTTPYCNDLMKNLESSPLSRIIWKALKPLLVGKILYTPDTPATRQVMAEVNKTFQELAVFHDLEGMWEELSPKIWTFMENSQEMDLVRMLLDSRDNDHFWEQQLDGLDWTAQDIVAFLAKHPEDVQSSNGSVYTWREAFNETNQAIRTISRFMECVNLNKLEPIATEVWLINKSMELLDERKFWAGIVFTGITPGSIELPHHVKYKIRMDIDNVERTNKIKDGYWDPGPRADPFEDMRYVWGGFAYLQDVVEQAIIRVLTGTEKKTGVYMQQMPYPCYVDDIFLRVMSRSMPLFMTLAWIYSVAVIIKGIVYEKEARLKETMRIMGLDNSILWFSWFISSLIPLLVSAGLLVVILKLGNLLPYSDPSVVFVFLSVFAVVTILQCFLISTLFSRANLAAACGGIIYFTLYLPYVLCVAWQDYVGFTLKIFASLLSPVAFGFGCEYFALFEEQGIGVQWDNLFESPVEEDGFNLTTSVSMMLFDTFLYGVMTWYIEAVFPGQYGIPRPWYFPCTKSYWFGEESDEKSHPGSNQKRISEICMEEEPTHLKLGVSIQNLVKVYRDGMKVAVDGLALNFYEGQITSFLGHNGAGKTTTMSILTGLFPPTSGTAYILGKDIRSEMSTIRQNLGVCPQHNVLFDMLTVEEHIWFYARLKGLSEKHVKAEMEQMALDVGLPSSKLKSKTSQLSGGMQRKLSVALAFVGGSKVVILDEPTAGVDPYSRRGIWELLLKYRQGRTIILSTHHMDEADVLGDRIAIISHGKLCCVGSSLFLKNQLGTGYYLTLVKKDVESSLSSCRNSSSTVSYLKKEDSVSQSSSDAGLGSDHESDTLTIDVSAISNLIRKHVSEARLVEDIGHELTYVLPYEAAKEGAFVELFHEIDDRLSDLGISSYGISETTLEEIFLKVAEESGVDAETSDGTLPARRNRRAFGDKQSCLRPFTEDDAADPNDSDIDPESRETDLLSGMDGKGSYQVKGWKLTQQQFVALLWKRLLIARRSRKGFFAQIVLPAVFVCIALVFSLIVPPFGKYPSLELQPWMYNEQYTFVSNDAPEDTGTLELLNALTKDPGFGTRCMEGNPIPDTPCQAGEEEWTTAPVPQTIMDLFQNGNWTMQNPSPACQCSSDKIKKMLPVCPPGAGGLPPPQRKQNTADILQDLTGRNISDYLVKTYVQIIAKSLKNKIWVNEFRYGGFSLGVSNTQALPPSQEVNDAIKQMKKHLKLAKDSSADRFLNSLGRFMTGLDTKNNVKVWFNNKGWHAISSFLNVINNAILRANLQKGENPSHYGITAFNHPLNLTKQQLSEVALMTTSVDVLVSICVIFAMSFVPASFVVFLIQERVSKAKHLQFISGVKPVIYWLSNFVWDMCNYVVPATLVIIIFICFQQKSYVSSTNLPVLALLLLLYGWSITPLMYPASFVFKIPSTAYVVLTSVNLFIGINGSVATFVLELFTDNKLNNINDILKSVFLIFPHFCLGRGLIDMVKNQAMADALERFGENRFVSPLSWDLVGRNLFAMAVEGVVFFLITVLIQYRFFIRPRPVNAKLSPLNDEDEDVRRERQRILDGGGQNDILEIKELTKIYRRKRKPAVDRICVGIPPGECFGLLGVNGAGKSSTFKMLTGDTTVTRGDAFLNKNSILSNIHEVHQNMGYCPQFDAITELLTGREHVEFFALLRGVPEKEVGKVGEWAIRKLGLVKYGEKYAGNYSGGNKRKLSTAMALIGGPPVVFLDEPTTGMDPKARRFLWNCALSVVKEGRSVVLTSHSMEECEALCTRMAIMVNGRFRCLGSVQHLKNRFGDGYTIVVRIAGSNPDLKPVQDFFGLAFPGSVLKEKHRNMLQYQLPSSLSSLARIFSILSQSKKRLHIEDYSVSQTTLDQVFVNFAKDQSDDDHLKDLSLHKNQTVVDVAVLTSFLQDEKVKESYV

Q: Which “higher molecular weight species on SDS-PAGE” value ([1]; increasing concentrations of HOCl) does the source give for “apoA-I: mature form of wild type human apoA-I, 243 amino acid polypeptide, purified from HDL” here?
A: generated higher molecular weight species that were resistant to SDS

Q: What about the “higher molecular weight species on SDS-PAGE” value ([1]; increasing concentrations of acrolein) of the same substance?
A: generated higher molecular weight species that were resistant to SDS

Q: What about the “higher molecular weight species on SDS-PAGE” value ([1]; nitrated by reagent ONOO- or the complete MPO/H2O2/NO2 system) of the same substance?
A: not observed

Q: What about the “mean residue molar ellipticity at 222 nm” value [2] of the same substance?
A: concentration-dependent increase

Q: And the “thioflavin T binding” value ([3]; chlorination by HOCl or the complete MPO system, versus untreated apoA-I)?
A: markedly increased

Q: What about the amyloid-like structures ([3]; nitrated apoA-I) of the same substance?
A: failed to reveal amyloid-like structures

Q: What about the amyloid-like structures ([3]; untreated apoA-I) of the same substance?
A: no detectable amyloid-like structures

Q: What about the “ability to activate LCAT” value [4] of the same substance?
A: looses its ability to activate LCAT; also recorded: loss of its ability

Q: What about the “correlation (R) of impaired cholesterol removal with adduction of K226” value (ABCA1 [5]; acrolein-treated apoA-I) of the same substance?
A: 0.988

Q: What about the cholesterol efflux activity (ABCA1 [5]; after nitration of apoA-I (H2O2 with MPO plus NO2)) of the same substance?
A: fails to affect; also recorded: only a small inhibitory effect

Q: What about the cholesterol efflux promoted (ABCA1 [5]) of the same substance?
A: significantly decreased

Q: What about the cholesterol efflux activity (ABCA1 [5]; apoA-I treated 1 hour with increasing concentrations of HOCl or of H2O2 with the complete chlorinating MPO system) of the same substance?
A: progressively and extensively impaired

Q: And the “ability to remove cellular cholesterol by the ABCA1 pathway” value (ABCA1 [5]; apoA-I treated 24 hours with increasing concentrations of acrolein)?
A: progressively impaired

Q: What about the cholesterol efflux activity (ABCA1 [5]; apoA-I treated with ONOO-) of the same substance?
A: no effect

Q: And the “ability to promote cholesterol efflux” value (ABCA1 [5]; complete MPO system with increasing H2O2 or increasing HOCl, then PilB to reduce Met(O) back to Met)?
A: partially restored

Q: And the cholesterol efflux activity (ABCA1 [6])?
A: progressively and extensively impaired

Q: With “Ac-DWFKAFYDKVAEKFKEAF-NH2 [4F, 4F apoA-I mimetic peptide, unmodified original]” as the substance, how does the “removing cell lipids by the ABCA1 pathway” value (ABCA1 [7]) read?
A: mimic apoA-I

Q: What does the source list for “Ac-DWLKAFYDKVAEKLKEAF-NH2 [2F, 2F apoA-I mimetic peptide, unmodified]”?
A: ability to remove cholesterol by ABCA1-independent mechanism [8]: significantly reduced; ability to remove cholesterol by ABCA1-dependent mechanism (ABCA1 [9]): significantly reduced; removing cell lipids by the ABCA1 pathway (ABCA1 [7]): mimic apoA-I; ABCA1 dependent cholesterol efflux activity (ABCA1 [5]; peptide treated 1 hour with a 25 molar excess of HOCl, versus untreated peptide): significantly reduced

Q: For “Tyr192Phe apoA-I: Tyr192Phe mutant of human apoA-I made by PCR mutagenesis, bacterially expressed”, which “chlorination of residue 192 by HOCl” value [10] is on record?
A: fails to chlorinate

Q: What about the cholesterol efflux promoted (ABCA1 [5]) of the same substance?
A: significantly decreased

Q: And the “protective effect against apoA-I inactivation” value (ABCA1 [5]; by either HOCL or the MPO system)?
A: only a small protective effect

Q: What about the “ability to promote cholesterol efflux” value (ABCA1 [5]; increasing H2O2 in the complete MPO system, then incubated with PilB) of the same substance?
A: nearly the same as that of native apoA-I

Q: And the “rates of cholesterol efflux compared with native apoA-I” value (ABCA1 [5]; no oxidant, increasing protein concentrations)?
A: virtually identical

Q: And the “resistance to oxidative inactivation by MPO” value (ABCA1 [5]; when the concentration of H2O2 was high)?
A: somewhat resistant
